Measurements from PMC10361663.

How the values were obtained:
Importin β = Importin β (UniProt Q14974); assay: anti-GFP co-IP, Western blot; details: reference: eGFP-HURP wild type; sites S627
Kif5B = Kif5B (UniProt P33176); assay: anti-GFP co-IP, Western blot; details: reference: eGFP-HURP wild type; sites S627

In the case of “HURP 1-846 (from UniProt Q15398) eGFP-HURP S627A”, the “binding against the reference” value (Importin β) is reported as “lost” and the “binding against the reference” value (Kif5B) is reported as “lost”.
